These results are taken from patent US20140357845A1.

In test [1] the target is s-H1 Full-length R343Q (A/Brisbane/59/2007), monomeric form (influenza A virus H1N1), B4URD6. Particulars: remark: other sources report otherwise.
Test [2] concerns the target s-H1 Full-length R343Q (A/Brisbane/59/2007), trimeric form (influenza A virus H1N1), B4URD6. Particulars: remark: other sources report otherwise.

B1: CR6261 (antibody, V domains shown)
VH: EVQLVESGAEVKKPGSSVKVSCKASGGPFRSYAISWVRQAPGQGPEWMGGIIPIFGTTKYAPKFQGRVTITADDFAGTVYMELSSLRSEDTAMYYCAKHMGYQVRETMDVWGKGTTVTVSS
VL: QSVLTQPPSVSAAPGQKVTISCSGSSSNIGNDYVSWYQQLPGTAPKLLIYDNNKRPSGIPDRFSGSKSGTSATLGITGLQTGDEANYYCATWDRRPTAYVVFGGGTKLTVLG
As to B1, the BLI response in test [1] stood at 0.9 nm; in test [2] it was 1.3 nm.
